According to publication PMC3531475:

What was measured:
[1] = molecular target: T1, adiponectin receptor type 1 (AdipoR1) (human (endogenous in SH-SY5Y)) (UniProt Q96A54)
T1 sequence: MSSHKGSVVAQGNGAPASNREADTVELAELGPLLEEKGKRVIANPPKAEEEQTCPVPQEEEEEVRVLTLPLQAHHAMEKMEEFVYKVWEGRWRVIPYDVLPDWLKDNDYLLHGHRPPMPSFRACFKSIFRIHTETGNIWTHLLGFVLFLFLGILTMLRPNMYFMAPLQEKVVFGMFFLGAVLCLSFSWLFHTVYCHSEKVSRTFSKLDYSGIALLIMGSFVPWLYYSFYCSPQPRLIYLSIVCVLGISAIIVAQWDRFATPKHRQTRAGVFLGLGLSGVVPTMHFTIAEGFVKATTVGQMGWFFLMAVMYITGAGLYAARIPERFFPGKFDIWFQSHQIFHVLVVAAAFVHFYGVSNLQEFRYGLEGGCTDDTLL

[2] = molecular target: T2, adiponectin receptor type 2 (AdipoR2) (human (endogenous in SH-SY5Y)) (UniProt Q86V24)
T2 sequence: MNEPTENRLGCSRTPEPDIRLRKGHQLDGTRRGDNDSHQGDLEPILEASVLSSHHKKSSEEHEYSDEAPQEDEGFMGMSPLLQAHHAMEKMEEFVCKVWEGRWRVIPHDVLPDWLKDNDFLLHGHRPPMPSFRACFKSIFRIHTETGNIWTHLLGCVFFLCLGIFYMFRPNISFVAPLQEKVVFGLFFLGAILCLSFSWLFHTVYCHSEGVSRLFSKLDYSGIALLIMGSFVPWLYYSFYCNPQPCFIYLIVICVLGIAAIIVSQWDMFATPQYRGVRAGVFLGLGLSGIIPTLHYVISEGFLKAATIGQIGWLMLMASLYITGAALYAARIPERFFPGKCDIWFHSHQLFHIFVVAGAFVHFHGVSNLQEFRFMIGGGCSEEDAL

Mouse recombinant adiponectin (from UniProt Q60994 18-247) (ligand)
cytotoxicity (LDH release, fold of untreated) of Sw-APP transfected SH-SY5Y cells under H2O2 (200-800 µM), with adiponectin 10 µg/ml for 2 hours beforehand; most marked at 400 µM H2O2 (fold cytotoxicity) [1]: 2.7
cytotoxicity (LDH release, fold of untreated) of Sw-APP transfected SH-SY5Y cells under H2O2 (200-800 µM), with adiponectin 10 µg/ml for 2 hours beforehand; most marked at 400 µM H2O2 (fold cytotoxicity) [2]: 2.7
